Usually Kd stands for the free concentration of one partner at which half of the binding sites on the other are occupied at equilibrium, for simple one-to-one binding.

This experiment has as its target T1, purified mouse CACHD1 extracellular domain (CACHD1ECD) (mouse, UniProt Q6PDJ1 50-1109).
T1 construct: CACHD1, mouse, extracellular domain; Construct limits and tags are in the supplementary methods; also called mouse CACHD1ECD; source: purified recombinant
T1 sequence (looked up): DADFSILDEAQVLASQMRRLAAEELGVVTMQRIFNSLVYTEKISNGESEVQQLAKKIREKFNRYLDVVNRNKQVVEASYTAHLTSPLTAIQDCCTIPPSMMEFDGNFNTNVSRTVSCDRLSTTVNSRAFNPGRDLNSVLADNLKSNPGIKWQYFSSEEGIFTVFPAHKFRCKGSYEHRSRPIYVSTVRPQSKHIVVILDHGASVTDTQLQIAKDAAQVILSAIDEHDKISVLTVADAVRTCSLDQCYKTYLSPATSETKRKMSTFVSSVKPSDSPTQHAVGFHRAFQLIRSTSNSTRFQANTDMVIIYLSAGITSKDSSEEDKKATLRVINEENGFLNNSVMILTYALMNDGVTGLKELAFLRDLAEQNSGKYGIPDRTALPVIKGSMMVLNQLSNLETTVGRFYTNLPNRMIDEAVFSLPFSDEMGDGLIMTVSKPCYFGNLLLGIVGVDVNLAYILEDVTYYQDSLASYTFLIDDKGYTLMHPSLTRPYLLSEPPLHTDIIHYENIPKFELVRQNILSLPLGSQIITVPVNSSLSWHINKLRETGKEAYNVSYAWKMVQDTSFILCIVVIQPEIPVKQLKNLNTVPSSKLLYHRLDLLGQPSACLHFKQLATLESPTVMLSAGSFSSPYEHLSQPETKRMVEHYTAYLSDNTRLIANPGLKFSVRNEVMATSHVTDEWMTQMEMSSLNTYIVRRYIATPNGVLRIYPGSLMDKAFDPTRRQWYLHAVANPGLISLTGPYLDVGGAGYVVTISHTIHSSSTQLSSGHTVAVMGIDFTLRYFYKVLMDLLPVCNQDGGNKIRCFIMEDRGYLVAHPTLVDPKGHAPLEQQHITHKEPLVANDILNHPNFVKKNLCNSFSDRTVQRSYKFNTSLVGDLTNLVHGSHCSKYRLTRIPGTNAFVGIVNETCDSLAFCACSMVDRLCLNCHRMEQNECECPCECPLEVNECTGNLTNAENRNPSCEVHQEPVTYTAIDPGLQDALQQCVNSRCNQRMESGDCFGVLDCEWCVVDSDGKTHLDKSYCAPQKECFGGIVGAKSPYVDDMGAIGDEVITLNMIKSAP
The experiment can be described thus: SPR; mouse CACHD1ECD as analyte; FZD CRDs or LRP6 fragments immobilised; equilibrium dissociation constants. The following applies: both partners purified. (In general: In SPR one partner is held on a chip, and binding of the other changes the refractive index at the surface.)

B1: mouse FZD5 cysteine-rich domain (FZD5CRD) (domain or fragment)
chain: ASKAPVCQEITVPMCRGIGYNLTHMPNQFNHDTQDEAGLEVHQFWPLVEIHCSPDLRFFLCSMYTPICLPDYHKPLPPCRSVCERAKAGCSPLMRQYGFAWPERMSCDRLPVLGGDAEVLCMDYNRSEAT
notes: Frizzled-5, mouse, cysteine-rich domain (CRD); source: purified recombinant
Molecule B1 had a Kd of 480 ± 40 nM.

B2: human LRP6 membrane proximal fragment (LRP6_(P3E3P4E4)) (domain or fragment)
chain: VPEAFLLFSRRADIRRISLETNNNNVAIPLTGVKEASALDFDVTDNRIYWTDISLKTISRAFMNGSALEHVVEFGLDYPEGMAVDWLGKNLYWADTGTNRIEVSKLDGQHRQVLVWKDLDSPRALALDPAEGFMYWTEWGGKPKIDRAAMDGSERTTLVPNVGRANGLTIDYAKRRLYWTDLDTNLIESSNMLGLNREVIADDLPHPFGLTQYQDYIYWTDWSRRSIERANKTSGQNRTIIQGHLDYVMDILVFHSSRQSGWNECASSNGHCSHLCLAVPVGGFVCGCPAHYSLNADNRTCSAPTTFLLFSQKSAINRMVIDEQQSPDIILPIHSLRNVRAIDYDPLDKQLYWIDSRQNMIRKAQEDGSQGFTVVVSSVPSQNLEIQPYDLSIDIYSRYIYWTCEATNVINVTRLDGRSVGVVLKGEQDRPRAVVVNPEKGYMYFTNLQERSPKIERAALDGTEREVLFFSGLSKPIALALDSRLGKLFWADSDLRRIESSDLSGANRIVLEDSNILQPVGLTVFENWLYWIDKQQQMIEKIDMTGREGRTKVQARIAQLSDIHAVKELNLQEYRQHPCAQDNGGCSHICLVKGDGTTRCSCPMHLVLLQDELSCG
notes: LRP6, human, membrane proximal fragment P3E3P4E4; also called 3-4
B2 showed a Kd of 170 ± 10 nM.
